Results on two molecules are retold here after patent publication US20210163538A1 (published 2021).

*1 amine or outer side, *2 acyl side, *3 side chain or, on linkers, in order; H or OH if unused. Bridges are numbered along the chain shown (N, C = ends). [ ]: non-standard residue; d: D form. AlexaFluor 647 = AlexaFluor 647 dye coupled as NHS ester to the Lys amine; Tyr(Me) = O-methyltyrosine, COc1ccc(C[C@H](N[*:1])C(=O)[*:2])cc1; Trp(5-F) = N[C@@H](Cc1c[nH]c2ccc(F)cc12)C(=O)O; mXylylene = c1cc(C[*:1])cc(C[*:2])c1; αMeP = C[C@@]1(C(=O)O)CCCN1; Mpa = O=C(O)CCS

Usually Kd stands for the constant that tells how readily two partners part at equilibrium.

Assay [1] deals with T1, biotinylated PCSK9 (UniProt Q8NBP7 31-692, limits assumed, biotinylated (site not stated)).
T1 construct: also called europium-labeled PCSK9
Description: method not stated; KD of the labelled probe of the Alexa FRET Standard assay.

In assay [2] the target is T1, biotinylated PCSK9. As to the kind of experiment: method not stated; KD of the labelled probe of the Alexa FRET Plus assay.

T1 sequence (Q8NBP7 31-692 limits assumed): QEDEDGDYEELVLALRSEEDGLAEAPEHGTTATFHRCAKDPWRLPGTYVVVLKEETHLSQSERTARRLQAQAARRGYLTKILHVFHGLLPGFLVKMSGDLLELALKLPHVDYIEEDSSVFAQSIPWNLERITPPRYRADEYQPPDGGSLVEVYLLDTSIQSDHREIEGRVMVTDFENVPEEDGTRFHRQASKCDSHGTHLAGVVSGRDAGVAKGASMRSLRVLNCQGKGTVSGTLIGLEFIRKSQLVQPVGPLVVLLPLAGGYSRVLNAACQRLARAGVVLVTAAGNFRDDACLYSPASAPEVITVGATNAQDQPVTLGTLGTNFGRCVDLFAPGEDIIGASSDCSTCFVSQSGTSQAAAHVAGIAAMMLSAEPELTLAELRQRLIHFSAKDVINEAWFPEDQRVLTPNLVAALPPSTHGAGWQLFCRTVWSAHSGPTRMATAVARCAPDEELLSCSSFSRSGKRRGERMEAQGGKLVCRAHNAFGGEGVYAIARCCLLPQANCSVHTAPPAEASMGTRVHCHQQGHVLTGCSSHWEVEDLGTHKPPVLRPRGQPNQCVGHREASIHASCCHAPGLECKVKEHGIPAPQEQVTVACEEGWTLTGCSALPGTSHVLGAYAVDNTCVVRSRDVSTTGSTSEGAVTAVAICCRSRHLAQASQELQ

B1: Reagent A (peptide)
peptide: [Mpa]K(AlexaFluor 647)G[Trp(5-F)][Trp(5-F)]DHY[αMeP]C-NH2
modifications: linker N-10 via mXylylene
notes: also called AlexaFluor647 (AF) tagged cyclic peptide; AF cyclic peptide
In the assay with biotinylated PCSK9 [1], B1 had a Kd of 83 nM.

B2: Reagent B (peptide)
peptide: [Mpa]K(AlexaFluor 647)[dA][Trp(5-F)][Trp(5-F)]DH[Tyr(Me)][αMeP]C-NH2
modifications: linker N-10 via mXylylene
notes: as for B1
As to B2, the Kd in the assay with biotinylated PCSK9 [2] worked out at 35 nM.
